Tests used:
Assay in all cases: ELISA-based competitive binding assay with purified PKC isoform
[1] = molecular target: PKC-δ (Homo sapiens, UniProt Q05655); parameters: key to Affinity for PKC isoform δ: —: no detectable affinity; Low to very low affinity at 10X or 20X or both PRE concentrations in at least one cell line in the cell extract assay; Low affinity in purified isoform assay.; Moderate affinity at 10X or 20X or both PRE concentrations in at least one cell line in the cell extract assay.; High affinity at 10X or 20X or both PRE concentrations in at least one cell line in the cell extract assay; High affinity in purified isoform assay; conditions: Purified isoform
Protocol: (§1) Peptides PRE 1, 2, 3, 4, 5, 6, 7, 8, 9, 10, 11, 12 and 13 (see Table 3) were tested for their ability to interfere with binding of PKC isoform-specific antibodies to their target PKC isoforms using a competitive binding assay and purified PKC isoforms.
(§2) Procedure: Competitive binding was assessed using a 96 well plate ELISA-based assay as described below.
(§3) Greiner 96 well ELISA plates were coated with the appropriate PKC isoform diluted in PBSN (PBS with Calcium/Magnesium+0.05% Sodium azide w/w). 50 μL/well at 250 ng/mL was used. Control wells contained PBSN only. Plates were incubated overnight at 4° C.
(§4) The plates were washed 3 times with 200 μL of dH2O per well, then 100 μL of blocking solution was added per well and the plate incubated for 1 h at 37° C. The washing steps with dH2O were repeated and 50 μL of the appropriate PRE solution (PRE stock solution [20 mM in DMSO] diluted in PBSN) was added and the plate incubated for 1 h at room temperature.
(§5) After incubation, 5 μL of 1.1:400 anti-PKC (isoform specific antibody) was added per well (to provide a final concentration of 1:4000). For PKC-epsilon, 1.1:800 dilution was used and for PKC-zeta a 1.1:100 dilution was used due to high and low binding affinity, respectively. The plates were then incubated 1 h at room temperature, followed by washing with dH2O as described above.
(§6) 50 μL of 1:1000 dilution of Alkaline Phosphatase (AP) conjugated antibody (anti-rabbit for all except zeta, which was anti-goat) was then added and the plate incubated for 1 h at room temperature. Washing with dH2O was then repeated. Finally, 100 μL of pNPP solution in pNPP buffer (2 mM MgCl2, 100 mM Sodium bicarbonate in water, pH 9.8) was added to all wells and incubated for 8 minutes for α, βI, βII ε, and ζ, or for 15-20 mins for δ (until sufficient coloration is observed). The reaction was stopped by addition of Stop solution (2N NaOH) and the absorbance at 405 nm was read on a Galaxy Plate reader.
(§7) Controls were PKC without PRE; blank controls, and controls containing the final concentrations of DMSO used for solubilizing the PREs. The non-specific binding capacity related to DMSO was also measured.
(§8) The antibodies used were as follows: anti-PKC α (Cat. No. SC-208); anti-PKC βI (Cat. No. SC-209); anti-PKC βII (Cat. No. SC-210); anti-PKC δ (Cat. No. SC-213); anti-PKC ε (Cat. No. SC-214); anti-PKC ζ (Cat. No. SC-216-G) (all from Santa Cruz Biotechnology, Inc.). The AP-conjugated antibodies were obtained from Jackson Immuno Research Laboratories (West Grove, Pa.).
(§9) Calculations: The OD values measured at 405 nm represent the free PKC coated per well.
(§10) OD405 PKC alone−Blank OD405 of each sample=OD405 coated isoform
(§11) (OD405 of sample X/OD405 coated isoform)×100=% n that represents the percentage of X binding compared to control.
(§12) 100-% n measures the relative binding capacity of X towards the tested isoform.
(§13) The apparent binding capacity of the DMSO samples was then subtracted from X binding capacity.
(§14) All measurements were made in triplicate and the values in the table represent the averaged calculated binding capacity values after subtraction of the DMSO apparent binding capacity (averaged from 12 values, respectively 10.80, 11.20 and 16.40 corresponding to the concentrations of DMSO used to dilute the […] at 200, 100 and 50 μM respectively). The results allow for quantitative comparison of the binding capacity of each PRE towards an individual isoform within each table, but not among isoforms due to differences in sensitivity of the specific antibodies toward the secondary antibody. This applies particularly to PKC-delta. As noted above, the colour development duration was increased 2-3 times and, as a result, the OD405 measurements may be overestimated for this isoform.

[2] = molecular target: PKC-βII (Homo sapiens, UniProt P05771); parameters: key to Affinity for PKC isoform βII: —: no detectable affinity; Low to very low affinity at 10X or 20X or both PRE concentrations in at least one cell line in the cell extract assay; Low affinity in purified isoform assay.; Moderate affinity at 10X or 20X or both PRE concentrations in at least one cell line in the cell extract assay.; High affinity at 10X or 20X or both PRE concentrations in at least one cell line in the cell extract assay; High affinity in purified isoform assay; conditions: Purified isoform
Protocol: as §1, §2, §3, §4, §5, §6, §7, §8, §9, §10, §11, §12, §13, §14

[3] = molecular target: T1, PKC-ζ (Homo sapiens, UniProt Q05513); parameters: key to Affinity for PKC isoform ζ: —: no detectable affinity; Low to very low affinity at 10X or 20X or both PRE concentrations in at least one cell line in the cell extract assay; Low affinity in purified isoform assay.; Moderate affinity at 10X or 20X or both PRE concentrations in at least one cell line in the cell extract assay.; High affinity at 10X or 20X or both PRE concentrations in at least one cell line in the cell extract assay; High affinity in purified isoform assay; conditions: for calculated binding capacity (100-% n, DMSO apparent binding subtracted): purified PKC-ζ
T1 sequence (Q05513 1-592): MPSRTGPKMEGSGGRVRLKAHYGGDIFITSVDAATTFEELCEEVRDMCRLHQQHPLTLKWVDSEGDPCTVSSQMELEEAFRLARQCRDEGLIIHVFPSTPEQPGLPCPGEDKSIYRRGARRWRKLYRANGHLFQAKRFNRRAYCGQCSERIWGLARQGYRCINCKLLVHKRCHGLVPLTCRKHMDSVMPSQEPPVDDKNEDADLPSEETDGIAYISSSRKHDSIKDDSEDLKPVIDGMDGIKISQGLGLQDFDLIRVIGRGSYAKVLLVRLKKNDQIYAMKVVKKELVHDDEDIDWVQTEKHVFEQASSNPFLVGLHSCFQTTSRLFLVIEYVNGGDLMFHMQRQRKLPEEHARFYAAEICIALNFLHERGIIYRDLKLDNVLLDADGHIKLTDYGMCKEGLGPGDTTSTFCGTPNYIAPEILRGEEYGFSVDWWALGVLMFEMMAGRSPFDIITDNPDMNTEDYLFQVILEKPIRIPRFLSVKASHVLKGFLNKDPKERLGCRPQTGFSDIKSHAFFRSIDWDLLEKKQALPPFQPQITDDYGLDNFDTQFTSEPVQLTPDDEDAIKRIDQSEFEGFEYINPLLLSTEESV
Protocol: as §1, §2, §3, §4, §5, §6, §7, §8, §9, §10, §11, §12, §13, §14

Sequence of PKC-δ (Q05655 whole entry, canonical isoform): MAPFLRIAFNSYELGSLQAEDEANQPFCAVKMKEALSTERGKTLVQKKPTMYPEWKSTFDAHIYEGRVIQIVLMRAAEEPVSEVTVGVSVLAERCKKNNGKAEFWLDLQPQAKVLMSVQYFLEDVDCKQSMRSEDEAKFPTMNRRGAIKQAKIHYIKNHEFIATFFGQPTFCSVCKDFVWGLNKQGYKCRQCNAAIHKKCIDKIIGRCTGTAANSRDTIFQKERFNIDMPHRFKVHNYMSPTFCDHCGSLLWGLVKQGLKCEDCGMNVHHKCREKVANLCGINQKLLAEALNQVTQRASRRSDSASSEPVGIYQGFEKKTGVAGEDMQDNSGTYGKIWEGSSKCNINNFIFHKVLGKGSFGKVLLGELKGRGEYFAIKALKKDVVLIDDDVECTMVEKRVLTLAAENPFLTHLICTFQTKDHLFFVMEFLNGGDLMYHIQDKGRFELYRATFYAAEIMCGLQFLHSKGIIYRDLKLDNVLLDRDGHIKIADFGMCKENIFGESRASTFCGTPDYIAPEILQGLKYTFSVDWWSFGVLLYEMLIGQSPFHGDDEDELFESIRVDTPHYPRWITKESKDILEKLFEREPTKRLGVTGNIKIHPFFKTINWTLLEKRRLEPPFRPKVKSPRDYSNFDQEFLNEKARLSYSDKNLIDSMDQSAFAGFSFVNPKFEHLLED
Sequence of PKC-βII (P05771 1-673 isoform P05771-2): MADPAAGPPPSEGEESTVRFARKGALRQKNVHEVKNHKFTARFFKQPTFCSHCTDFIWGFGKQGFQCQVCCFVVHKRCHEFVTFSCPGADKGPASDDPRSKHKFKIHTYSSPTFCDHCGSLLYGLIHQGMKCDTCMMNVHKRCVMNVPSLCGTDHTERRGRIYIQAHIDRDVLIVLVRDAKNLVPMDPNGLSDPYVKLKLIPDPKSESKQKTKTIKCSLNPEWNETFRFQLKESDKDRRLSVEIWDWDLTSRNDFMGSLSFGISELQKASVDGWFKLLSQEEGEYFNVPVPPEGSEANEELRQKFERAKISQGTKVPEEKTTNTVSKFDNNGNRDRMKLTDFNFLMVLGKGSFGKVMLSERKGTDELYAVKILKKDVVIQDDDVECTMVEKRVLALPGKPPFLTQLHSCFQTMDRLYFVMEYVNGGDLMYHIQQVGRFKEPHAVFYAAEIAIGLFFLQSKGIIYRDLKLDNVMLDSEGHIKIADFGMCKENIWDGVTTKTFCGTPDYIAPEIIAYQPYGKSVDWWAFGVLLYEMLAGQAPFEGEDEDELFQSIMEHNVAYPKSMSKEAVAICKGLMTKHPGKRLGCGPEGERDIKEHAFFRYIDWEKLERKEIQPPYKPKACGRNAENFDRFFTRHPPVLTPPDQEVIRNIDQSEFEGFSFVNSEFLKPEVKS

## Ac-KDAQNLI-NH2 [PRE 12]
[1]
  Affinity for PKC isoform δ: L
[2]
  Affinity for PKC isoform βII: —
[3]; PRE 50 μM
  calculated binding capacity (100-% n, DMSO apparent binding subtracted): 4.20%
[3]; PRE 100 μM
  calculated binding capacity (100-% n, DMSO apparent binding subtracted): 8.77%
[3]; PRE 200 μM
  calculated binding capacity (100-% n, DMSO apparent binding subtracted): 0.33%
[3]; Purified isoform
  Affinity for PKC isoform ζ: —

— patent US20110039770A1, “INHIBITORS OF PROTEIN KINASE C ISOFORMS AND USES THEREOF” (PHARMAGAP INC., priority 2005, published 2011)
